Patent US10568344B2, “Methods of improving animal performance” (Novozymes A/S, priority 2015, dated 2020)
Marks after values point to notes of the source that are not given here.

Tests used:
[1] = In vivo broiler trial 1, growth performance; set-up: species or system male broiler chickens (ROSS PM3)
[2] = In vivo broiler trial 3, growth performance; set-up: species or system male broiler chickens; Motality: unit not given here
Method: The in vivo trial was carried out as described in example 7, except the feed was supplemented with the GH25 lysozyme (SEQ ID NO: 1) at 12.5 or 25 mg per kg feed, the GH24 lysozyme (SEQ ID NO: 4) at 12.5 or 25 mg per kg feed or with Avilamycin at an inclusion level of 10 mg/kg. No additional enzymes (e.g. phytase) were added to the feed. The experimental diets (Starter, Grower and Finisher) were based on soybean meal, wheat and rye (12%) as main ingredients (Table 8). The diets were formulated to contain 225 g crude protein and 12.5 MJ/kg MEN for the starter period, 215 g crude protein and 12.8 MJ/kg MEN for the grower period and 205 g crude protein and 13.0 MJ/kg MEN for the finisher period.

chicken gut microbiota = assay: Microbiota analysis of broiler trial 4 (16S rRNA), overall composition; type: in vivo; settings: 50 ppm; ceca content
[3] = Grower (d 22-36), 25 mg/kg feed
[4] = Grower (d 22-36), 50 mg/kg feed
[5] = Grower (d 22-36), 100 mg/kg feed
[6] = Grower (d 22-36), 200 mg/kg feed
[7] = Starter (d 1-22), 25 mg/kg feed
[8] = Starter (d 1-22), 50 mg/kg feed
[9] = Starter (d 1-22), 100 mg/kg feed
[10] = Starter (d 1-22), 200 mg/kg feed
[11] = Whole period (d 1-36), 25 mg/kg feed
[12] = Whole period (d 1-36), 50 mg/kg feed
[13] = Whole period (d 1-36), 100 mg/kg feed
[14] = Whole period (d 1-36), 200 mg/kg feed
[15] = Finisher (d 36-42), 12.5 mg/kg feed
[16] = Finisher (d 36-42), 25 mg/kg feed
[17] = Grower (d 22-36), 12.5 mg/kg feed
[18] = Starter (d 1-22), 12.5 mg/kg feed
[19] = Whole period (d 1-42), 12.5 mg/kg feed
[20] = Whole period (d 1-42), 25 mg/kg feed

B1: SEQ ID NO: 1: mature amino acid sequence of a wild type GH25 lysozyme from Acremonium alcalophilum with N-terminal SPIRR (protein)
chain: SPIRRRIPGFDISGWQPTTDFARAYANGDRFVYIKATEGTTFKSSAFSRQYTGATQNGFIRGAYHFAQPAASSGAAQARYFASNGGGWSKDGITLPGALDIEYNPNGATCYGLSQSAMVNWIEDFVTTYHGITSRWPVIYTTTDWWTQCTGNSNRFANRCPLWIARYASSVGTLPNGWGFYTFWQYNDKYPQGGDSNWFNGDASRLRALANGD
modifications: Wild type sequence with N-terminal SPIRR
Improvement of FCR compared to the control diet ([1]; 25 mg/kg): 3.3% | Improvement of FCR compared to the control diet ([1]; 50 mg/kg): 2.9% | Improvement of FCR compared to the control diet ([1]; 100 mg/kg): 3.2% | FCR [1, 3]: 1.676^c | FCR, Relative to C (%) [1, 3]: 96.7% | Feed intake [1, 3]: 3004^ab g/b | Feed intake, Relative to C (%) [1, 3]: 98.5% | Weight gain [1, 3]: 1792 g/b | Weight gain, Relative to C (%) [1, 3]: 101.9% | FCR [1, 4]: 1.683^bc | FCR, Relative to C (%) [1, 4]: 97.1% | Feed intake [1, 4]: 2939^ab g/b | Feed intake, Relative to C (%) [1, 4]: 96.4% | Weight gain [1, 4]: 1747 g/b | Weight gain, Relative to C (%) [1, 4]: 99.3% | FCR [1, 5]: 1.662^c | FCR, Relative to C (%) [1, 5]: 95.8% | Feed intake [1, 5]: 2870^b g/b | Feed intake, Relative to C (%) [1, 5]: 94.1% | Weight gain [1, 5]: 1729 g/b | Weight gain, Relative to C (%) [1, 5]: 98.2% | FCR [1, 6]: 1.742^a | FCR, Relative to C (%) [1, 6]: 100.5% | Feed intake [1, 6]: 2934^ab g/b | Feed intake, Relative to C (%) [1, 6]: 96.2% | Weight gain [1, 6]: 1685 g/b | Weight gain, Relative to C (%) [1, 6]: 95.7% | FCR [1, 7]: 1.781^ab | FCR, Relative to C (%) [1, 7]: 98% | Feed intake [1, 7]: 1985 g/b | Feed intake, Relative to C (%) [1, 7]: 99.5% | Weight gain [1, 7]: 1115 g/b | Weight gain, Relative to C (%) [1, 7]: 101.3% | FCR [1, 8]: 1.793^ab | FCR, Relative to C (%) [1, 8]: 98.7% | Feed intake [1, 8]: 1977 g/b | Feed intake, Relative to C (%) [1, 8]: 99.1% | Weight gain [1, 8]: 1102 g/b | Weight gain, Relative to C (%) [1, 8]: 100.1% | FCR [1, 9]: 1.723^bc | FCR, Relative to C (%) [1, 9]: 94.9% | Feed intake [1, 9]: 1941 g/b | Feed intake, Relative to C (%) [1, 9]: 97.3% | Weight gain [1, 9]: 1127 g/b | Weight gain, Relative to C (%) [1, 9]: 102.4% | FCR [1, 10]: 1.696^c | FCR, Relative to C (%) [1, 10]: 93.4% | Feed intake [1, 10]: 1946 g/b | Feed intake, Relative to C (%) [1, 10]: 97.6% | Weight gain [1, 10]: 1148 g/b | Weight gain, Relative to C (%) [1, 10]: 104.2% | FCR [1, 11]: 1.716^bc | FCR, Relative to C (%) [1, 11]: 97.3% | Feed intake [1, 11]: 4991^ab g/b | Feed intake, Relative to C (%) [1, 11]: 98.9% | Weight gain [1, 11]: 2908 g/b | Weight gain, Relative to C (%) [1, 11]: 101.6% | FCR [1, 12]: 1.727^b | FCR, Relative to C (%) [1, 12]: 97.9% | Feed intake [1, 12]: 4920^ab g/b | Feed intake, Relative to C (%) [1, 12]: 97.5% | Weight gain [1, 12]: 2849 g/b | Weight gain, Relative to C (%) [1, 12]: 99.6% | FCR [1, 13]: 1.686^c | FCR, Relative to C (%) [1, 13]: 95.6% | Feed intake [1, 13]: 4815^b g/b | Feed intake, Relative to C (%) [1, 13]: 95.4% | Weight gain [1, 13]: 2856 g/b | Weight gain, Relative to C (%) [1, 13]: 99.8% | FCR [1, 14]: 1.722^b | FCR, Relative to C (%) [1, 14]: 97.6% | Feed intake [1, 14]: 4877^ab g/b | Feed intake, Relative to C (%) [1, 14]: 96.6% | Weight gain [1, 14]: 2832 g/b | Weight gain, Relative to C (%) [1, 14]: 99% | Improvement of weight gain compared to the control diet ([1]; day 1 to day 36, 25 mg/kg): 1.6% | Improvement of FCR compared to the control diet ([1]; starter period, 25 mg/kg): 2.0% | Improvement of weight gain compared to the control diet ([1]; starter period, 25 mg/kg): 1.3% | Improvement of FCR compared to the control diet ([1]; starter period, 100 mg/kg): 5.1% | Improvement of weight gain compared to the control diet ([1]; starter period, 100 mg/kg): 2.4% | Improvement of FCR compared to the control diet ([1]; starter period, 200 mg/kg): 6.6% | Improvement of weight gain compared to the control diet ([1]; starter period, 200 mg/kg): 4.2% | Benefit over the NC diet ([2]; 12.5 mg/kg): did not show any benefit | FCR [2, 15]: 1.953 | FCR, Relative to C (%) [2, 15]: 99.6% | Feed intake [2, 15]: 1544 g/b | Feed intake, Relative to C (%) [2, 15]: 103.8% | Weight gain [2, 15]: 794 g/b | Weight gain, Relative to C (%) [2, 15]: 104.2% | FCR [2, 16]: 1.968 | FCR, Relative to C (%) [2, 16]: 100.4% | Feed intake [2, 16]: 1522 g/b | Feed intake, Relative to C (%) [2, 16]: 102.3% | Weight gain [2, 16]: 775 g/b | Weight gain, Relative to C (%) [2, 16]: 101.8% | FCR [2, 17]: 1.734 | FCR, Relative to C (%) [2, 17]: 100.6% | Feed intake [2, 17]: 2365 g/b | Feed intake, Relative to C (%) [2, 17]: 103.5% | Weight gain [2, 17]: 1365 g/b | Weight gain, Relative to C (%) [2, 17]: 102.8% | FCR [2, 3]: 1.692 | FCR, Relative to C (%) [2, 3]: 98.2% | Feed intake [2, 3]: 2308 g/b | Feed intake, Relative to C (%) [2, 3]: 101.0% | Weight gain [2, 3]: 1364 g/b | Weight gain, Relative to C (%) [2, 3]: 102.7% | FCR [2, 18]: 1.466 | FCR, Relative to C (%) [2, 18]: 101.8% | Feed intake [2, 18]: 1621 g/b | Feed intake, Relative to C (%) [2, 18]: 102.7% | Weight gain [2, 18]: 1106 g/b | Weight gain, Relative to C (%) [2, 18]: 100.9% | FCR [2, 7]: 1.413 | FCR, Relative to C (%) [2, 7]: 98.1% | Feed intake [2, 7]: 1596 g/b | Feed intake, Relative to C (%) [2, 7]: 101.1% | Weight gain [2, 7]: 1129 g/b | Weight gain, Relative to C (%) [2, 7]: 103.0% | EPEF [2, 19]: 398 | EPEF, Relative to C (%) [2, 19]: 95.2% | FCR [2, 19]: 1.695 | FCR, Relative to C (%) [2, 19]: 100.9% | Feed intake [2, 19]: 5529 g/b | Feed intake, Relative to C (%) [2, 19]: 103.3% | Motality [2, 19]: 13.1 | Weight gain [2, 19]: 3264 g/b | Weight gain, Relative to C (%) [2, 19]: 102.5% | EPEF [2, 20]: 428 | EPEF, Relative to C (%) [2, 20]: 102.4% | FCR [2, 20]: 1.660 | FCR, Relative to C (%) [2, 20]: 98.8% | Feed intake [2, 20]: 5426 g/b | Feed intake, Relative to C (%) [2, 20]: 101.4% | Motality [2, 20]: 8.8 | Weight gain [2, 20]: 3269 g/b | Weight gain, Relative to C (%) [2, 20]: 102.6% | EPEF improvement compared to NC diet ([2]; whole period, 25 mg/kg): 1.7% | FCR improvement compared to NC diet ([2]; whole period, 25 mg/kg): 1.4% | Observed shift in the composition of the microbiota compared to the control group, Significance (chicken gut microbiota): +++ (Significant change (+++), p-value < 0.05)
